From patent US20210380703A1 (RIGEL PHARMACEUTICALS, published 2021) come the findings set out here.

To fix the notation:
B1: 374_E07 (antibody, V domains shown)
VH: EVQLLESGGGLVQPGGSLRLSCAASGFTFSDYSMNWVRQAPGKGLEWVAGINYNGGYTSYADSVKGRFTISRDNSKNTLYLQMNSLRAEDTAVYYCARSANWHDTALDYWGQGTLVTVSS
VL: DIQMTQSPSSLSASVGDRVTITCRASQSIITYVNWYQQKPGKAPKLVIYAATSRASGVPSRFSGSGSGTDFTLTISSLQPEDFATYYCQQSYNTPLTFGGGTKVEIK
notes: VH/VL only
B2: 374_G07 (antibody, V domains shown)
VH: B1 VH with D31S, A49S, G55S, T58K
VL: B1 VL with T31S, V33L, V47L, N93D, T94S
notes: VH/VL only
B3: 374_H08 (antibody, V domains shown)
VH: B1 VH with S30D, D31S, A49S, S59G, N101T, A106H
VL: B1 VL with I30L, T31S, V33L, V47L, R54L, A55H, N93E, T94N
notes: VH/VL only
B4: 374_H03 (antibody, V domains shown)
VH: B1 VH with D31S, S33G, A49S, G55S, T58K
VL: B1 VL with I30L, T31S, N93D, T94S
notes: VH/VL only
B5: 374_F01 (antibody, V domains shown)
VH: B1 VH with S30D, D31S, A49S, G50N, S59G
VL: B1 VL with I30L, T31S, A55H, N93E, T94N
notes: VH/VL only
B6: 374_H04 (antibody, V domains shown)
VH: B1 VH with S30D, D31S, A49S, G55S
VL: B1 VL with I30L, V33L, V47L, N93D, T94N
notes: VH/VL only
B7: 374_E09 (antibody, V domains shown)
VH: B1 VH with A49S, T58K, S59G, N101T, A106H
VL: B1 VL with I30V, V33L, N93D, T94S
notes: VH/VL only
B8: 374_H06 (antibody, V domains shown)
VH: B1 VH with D31S, S33G, A49S, G50N, S59G
VL: B1 VL with I30V, T31S, T94L
notes: VH/VL only
B9: 375_A02 (antibody, V domains shown)
VH: B1 VH with D31S, G55S, N101T, A106H
VL: not shown
notes: VH/VL only
B10: 374_H09 (antibody, V domains shown)
VH: B1 VH with D31S, G50N, G55S, T58K
VL: B1 VL with I30L, T31S, V33L, A51V, R54L, N93D, T94L
notes: VH/VL only
B11: 375_A06 (antibody, V domains shown)
VH: B1 VH with D31S, G55S, T58K, S59G, N101T, A106H
VL: B1 VL with I30L, V47L, T52S, R54L, A55Q, N93S
notes: VH/VL only
B12: 375_B04 (antibody, V domains shown)
VH: B1 VH with S30D, D31S, G50N, S59G, N101T, A106H
VL: B1 VL with I30L, V33L, V47L, N93D, T94N
notes: VH/VL only
B13: 374_E08 (antibody, V domains shown)
VH: B1 VH with D31S, S33G, T58K
VL: B1 VL with I30L, T31S, V33L, V47L, A55H, N93D, T94L
notes: VH/VL only
B14: 374_E11 (antibody, V domains shown)
VH: B1 VH with D31S, S33G, A49S, G50N
VL: B1 VL with I30V, V33L, N93D, T94S
notes: VH/VL only
B15: 375_C12 (antibody, V domains shown)
VH: B1 VH with D31S, G50N, S59G, N101T, A106H
VL: B1 VL with I30L, V33L, V47L, N93D, T94L
notes: VH/VL only
B16: 374_G06 (antibody, V domains shown)
VH: B1 VH with D31S, S33G, N35H, G50S
VL: B1 VL with I30L, T31S, V33L, V47L, A51V, N93D, T94L
notes: VH/VL only
B17: 375_A05 (antibody, V domains shown)
VH: B1 VH with D31S, S33G, G50N, T58K, S59G
VL: B1 VL with I30L, T31S, V33L, V47L, N93D, T94L
notes: VH/VL only
B18: 374_F04 (antibody, V domains shown)
VH: B1 VH with D31S, S33G, A49S, G55S, T58K
VL: B1 VL with I30L, V47L, T94S
notes: VH/VL only
B19: 375_C06 (antibody, V domains shown)
VH: B1 VH with S30D, S33G, N35H, G50S, G55S
VL: B1 VL with I30L, A51T, N93D, T94S
notes: VH/VL only
B20: 374_G04 (antibody, V domains shown)
VH: B1 VH with D31S, S59G
VL: B1 VL with I30L, V33L, R54L, N93D, T94N
notes: VH/VL only
B21: 374_F10 (antibody, V domains shown)
VH: B1 VH with D31S, A49S
VL: B1 VL with I30L, T31S, V33L, N93D, T94N
notes: VH/VL only
B22: 374_F11 (antibody, V domains shown)
VH: B1 VH with S30D, D31S, A49S, G50N, S59G
VL: B1 VL with I30L, T31S, V33L, V47L, A51V, R54L, N93E, T94S
notes: VH/VL only
B23: 374_H07 (antibody, V domains shown)
VH: B1 VH with S30D, D31S, S33G, G50N, S59G
VL: B1 VL with I30L, V33L, V47L, N93E
notes: VH/VL only

Numbering of substitutions follows the chain as printed.
Also: test concentration or dose not given here.

mouse ACVR2A, sequence (P27038 20-135 limits assumed): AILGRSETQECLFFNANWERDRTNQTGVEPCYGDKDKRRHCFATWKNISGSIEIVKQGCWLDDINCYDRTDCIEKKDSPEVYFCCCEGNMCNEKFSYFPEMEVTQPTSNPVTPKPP
human ACVR2A, sequence (P27037 20-135 limits assumed): as the sequence (P27038 20-135 limits assumed) above, with R20K, I73V counted along it

The first experiment addresses human ACVR2A (human, UniProt P27037 20-135, limits assumed). In words: ELISA. A digest of the protocol:
(§1)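 Binding signal was read by ELISA after ACVR2A-specific monoclonal antibodies were tested against human ACVR2A and mouse ACVR2A, with human Fc as the negative control.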
Background: ELISA stands for enzyme-linked immunosorbent assay.
The molecule B1 had an optical density of 3.63 OD.

As to B2, the optical density turned out to be 3.63 OD.

On to B3, for which the optical density turned out to be 3.31 OD.

Take B4: the optical density turned out to be 3.27 OD.

Molecule B5 yielded an optical density of 3.29 OD.

B6 displayed an optical density of 3.28 OD.

The molecule B7 yielded an optical density of 3.67 OD.

As to B8, the optical density was 3.3 OD.

Molecule B9 gave an optical density of 2.98 OD.

In the case of B10, the optical density came to 3.25 OD.

For the molecule B11, the optical density amounted to 3.65 OD.

The molecule B12 had an optical density of 3.69 OD.

As for B13, the optical density stood at 3.5 OD.

B14 displayed an optical density of 3.61 OD.

B15 yielded an optical density of 3.66 OD.

B16 gave an optical density of 3.26 OD.

As for B17, the optical density is 3.72 OD.

B18 showed an optical density of 3.58 OD.

B19 gave an optical density of 2.65 OD.

In the case of B20, the optical density is 2.1 OD.

For B21, the optical density amounted to 3.21 OD.

Regarding B22, the optical density worked out at 3.66 OD.

The molecule B23 gave an optical density of 3.24 OD.

The target in the next experiment is mouse ACVR2A (mouse, UniProt P27038 20-135, limits assumed). In words: ELISA. A digest of the protocol:
as §1
For B1, the optical density is 3.58 OD.

In turn, B2 gave an optical density of 3.72 OD.

With B3, the optical density came out at 3.27 OD.

Take B4: the optical density stood at 3.27 OD.

B5 returned an optical density of 3.6 OD.

As for B6, the optical density turned out to be 3.31 OD.

B7 yielded an optical density of 3.58 OD.

In turn, B8 displayed an optical density of 3.26 OD.

As for B9, the optical density is 3.18 OD.

B10 yielded an optical density of 3.26 OD.

Molecule B11 returned an optical density of 3.71 OD.

B12 had an optical density of 3.73 OD.

Consider B13, for which the optical density stood at 3.52 OD.

As to B14, the optical density is 3.59 OD.

The molecule B15 had an optical density of 3.33 OD.

Take B16: the optical density amounted to 3.42 OD.

As to B17, the optical density is 3.69 OD.

With B18, the optical density is 3.65 OD.

On to B19, for which the optical density was 3.21 OD.

Turning to B20, the optical density is 2.32 OD.

B21: the optical density stood at 3.45 OD.

As to B22, the optical density is 3.61 OD.

In the case of B23, the optical density was 3.25 OD.

The target of the next experiment is T1, biotinylated goat anti-human kappa light chain.
T1 construct: Positive control of the ELISA
The experiment in a line: ELISA; positive control. The procedure, abridged:
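Monoclonal antibodies were first applied to human or mouse ACVR2A, alongside biotinylated goat anti-human kappa light chain (positive control) and human Fc (negative control); binding was then determined by ELISA.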
Take B1: the optical density turned out to be 3.2 OD.

In turn, B2 yielded an optical density of 3.26 OD.

As for B3, the optical density amounted to 3.09 OD.

The molecule B4 gave an optical density of 3.06 OD.

B5 came in with an optical density of 3.03 OD.

The molecule B6 had an optical density of 3.19 OD.

The molecule B7 had an optical density of 3.16 OD.

B8: the optical density was determined as 3.08 OD.

B9: the optical density amounted to 3.07 OD.

Regarding B10, the optical density is 3.04 OD.

With B11, the optical density was 3.11 OD.

On to B12, for which the optical density was determined as 3.26 OD.

The molecule B13 displayed an optical density of 3.26 OD.

For the molecule B14, the optical density worked out at 3.34 OD.

With B15, the optical density worked out at 3.27 OD.

The molecule B16 showed an optical density of 3.29 OD.

As to B17, the optical density was found to be 3.12 OD.

Take B18: the optical density was 3.23 OD.

Regarding B19, the optical density turned out to be 3.29 OD.

For the molecule B20, the optical density came out at 3.02 OD.

Molecule B21 had an optical density of 3.28 OD.

In the case of B22, the optical density was 3.15 OD.

Take B23: the optical density stood at 2.97 OD.
